Assay results published in US20230416410A1 (ZOETIS SERVICES, published 2023).
Positions count from the first letter of the chain named. Values belong to the binder of their own block, whether it stands above or below them.

Tests used:
Test in all cases: SPR Biacore, biotinylated receptor on SA sensor, pH 7.4, 15 C
CTLA4 Fc bIgG3a = molecular target: T1, CTLA4 Fc bIgG3a (canine; bovine, UniProt Q9XSI1 36-161, limits assumed)
T1 construct: No linker; also called bIgG3a wildtype; CTLA4 Fc bIgG3a wildtype
T1 sequence: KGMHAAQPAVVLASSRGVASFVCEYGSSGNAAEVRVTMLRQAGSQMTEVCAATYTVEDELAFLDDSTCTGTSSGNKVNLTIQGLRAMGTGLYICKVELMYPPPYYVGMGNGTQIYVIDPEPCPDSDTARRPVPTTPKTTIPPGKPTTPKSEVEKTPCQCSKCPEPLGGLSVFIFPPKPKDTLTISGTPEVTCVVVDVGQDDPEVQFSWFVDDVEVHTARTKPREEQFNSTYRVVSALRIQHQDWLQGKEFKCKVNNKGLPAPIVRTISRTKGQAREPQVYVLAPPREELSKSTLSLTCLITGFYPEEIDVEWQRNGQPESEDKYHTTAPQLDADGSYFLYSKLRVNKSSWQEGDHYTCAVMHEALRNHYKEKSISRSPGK
Method: (§1) A Biacore SPR binding assay was designed to test the affinity of bovine IgG subclasses to bFcgR1, bFcgR2 and bFcgR3. All reported KD's were measured by Biacore (Cytiva, Marlborough, MA, USA) using series S SA sensor. Biotinylated-bovine FcgR1, R2 and R3 were captured on the sensor surface using a modified SA capture method to reach the desired surface density. 10 mM HEPES, 150 mM NaCl, 3 mM EDTA, 0.05% v/v surfactant P20, pH7.4 buffer was used as the running and titration buffer. Various concentrations of bovine CTLA4-Fc fusions or mAbs were titrated and flowed over the receptor surface and affinities were determined using Biacore T200 Evaluation software (Cytiva, Marlborough, MA, USA) with 1:1 binding model. The method of double referencing has been applied where the reference flow cell was subtracted from the flow cell containing immobilized receptors and blank runs containing buffer only were subtracted out from all runs. Flow cells were regenerated using 10 mM Glycine pH1.5. Runs were performed at 15° C.
(§2) Biacore methods for bFcgR1, R2, and R3 were performed as described in Examples above. […] Although the two allotypes have different KDs for bFcgR2 and bFcgR3, both wildtype allotypes do bind. All of the mutations, bIgG3Win, bIgG3WinSAS, bIgG3SAS and bIgG3SAP for both the a and b allotypes knocked down binding to bFcgR1, bFcgR2 and bFcgR3 to negligible affinities. Thus, for knocking out receptor binding, the two allotypes compare similarly.

CTLA4 Fc bIgG3aWin = molecular target: T2, CTLA4 Fc bIgG3aWin (canine; bovine, UniProt Q9XSI1 36-161, limits assumed)
T2 construct: No linker
T2 sequence: T1 sequence with P165A, L166A, G168A
Method: as §1, §2

CTLA4 Fc bIgG1aWinSS = molecular target: T3, CTLA4 Fc bIgG1aWinSS (canine; bovine, UniProt Q9XSI1 36-161, limits assumed)
T3 construct: No linker
T3 sequence: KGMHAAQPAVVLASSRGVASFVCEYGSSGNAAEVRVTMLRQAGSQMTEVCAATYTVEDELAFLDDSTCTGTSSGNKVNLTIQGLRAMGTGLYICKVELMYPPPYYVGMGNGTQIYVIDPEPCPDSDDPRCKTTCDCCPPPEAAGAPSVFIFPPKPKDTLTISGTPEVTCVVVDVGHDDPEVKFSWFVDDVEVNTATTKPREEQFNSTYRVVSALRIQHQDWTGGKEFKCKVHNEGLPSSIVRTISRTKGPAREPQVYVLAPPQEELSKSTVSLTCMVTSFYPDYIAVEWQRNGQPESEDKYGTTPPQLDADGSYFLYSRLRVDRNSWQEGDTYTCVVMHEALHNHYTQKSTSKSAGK
Method: as §1
The ability to knock out binding to bovine Fc gamma receptors was evaluated by comparing SPR Biacore bFcgR affinity of bIgG1a and bIgG1b wildtype Fc to the bIgG1a and bIgG1b mutations, described above. All mutations made to bIgG1 are identical for the a and b allotypes. Biacore methods for bFcgR1, R2, and R3 were performed as described in Example 1.

CTLA4 Fc bIgG3aSAS = molecular target: T4, CTLA4 Fc bIgG3aSAS (canine; bovine, UniProt Q9XSI1 36-161, limits assumed)
T4 construct: No linker
T4 sequence: T1 sequence with P260S, P262S
Method: as §1, §2

CTLA4 Fc bIgG3aSAP = molecular target: T5, CTLA4 Fc bIgG3aSAP (canine; bovine, UniProt Q9XSI1 36-161, limits assumed)
T5 construct: No linker
T5 sequence: T1 sequence with P260S
Method: as §1, §2

Kd (CTLA4 Fc bIgG3a): 7170 nM
binding result (CTLA4 Fc bIgG3aWin): no binding
B1: recombinant bovine FcgR3 (receptor)
chain: DTQTADPSKAVVLLDPQWNHVLTNDRVTLKCQGDYPVEDNSTKWWHNGTLISSQTPSYFIADVKVQDSGEYKCQTGLSAPSDPVKLEVHVGWLLLQVAQRVVNVGKPIRLKCHSWKKTPVAKVQYFRNGRGKKYSHGNSDFHIPEAKLEHSGSYFCRGIIGSKNESSESVQITVQAPETLQTVSSFFLPWHQHHHHHHAGLNDIFEAQKIEWHE
modifications: biotin on the BAP tag (BirA)
notes: also called bFcgR3; bFcgRIII

Kd (CTLA4 Fc bIgG1aWinSS): 52.5 nM
Kd (CTLA4 Fc bIgG3a): 68.9 nM
binding result (CTLA4 Fc bIgG3aWin): no binding
binding result (CTLA4 Fc bIgG3aSAS): no binding
binding result (CTLA4 Fc bIgG3aSAP): no binding
B2: recombinant bovine FcgR2 (receptor)
chain: KPDLPKAVVTIQPAWINVLREDHVTLTCQGTSFSAGNLTTWFHNGSSIHTQKQPSYSFRAGSNDSGSYRCQREQTSLSDPVHLDVISDWLLLQTPSLVFQEGEPIMLRCHSWRNQPLNKITFYQDRKSKIFSYQRTNFSIPRANLSHSGQYHCTAFIGKMLHSSQPVNITVQESSSSGPSSMTHHHHHHAGLNDIFEAQKIEWHE
modifications: biotin on the BAP tag (BirA)
notes: also called bFcgR2; bFcgRII
